Read-outs that look alike come from different tables or passages of the source. Where no end group is shown, it is not given here.
Columns and labels:
[1] = molecular target: T1, triple Tudor domain (3TD) of SETDB1, wildtype, as used in solution (ITC, NMR, crystals) (UniProt Q15047 190-410); test: ITC
[2] = molecular target: 3TD of SETDB1, W358A mutant, as used in ITC and crystals (UniProt Q15047 190-410, W358A); test: ITC
[3] = molecular target: 3TD of SETDB1, Y268A mutant, as used in ITC (UniProt Q15047 190-410, Y268A); test: ITC
[4] = molecular target: 3TD of SETDB1, R384A mutant, as used in ITC (UniProt Q15047 190-410, alanine mutation of R384); test: ITC
[5] = molecular target: T2, 3TD of SETDB1, F332A mutant, as used in ITC (UniProt Q15047 190-410, F332A); test: ITC
[6] = molecular target: T2, 3TD of SETDB1, F332A mutant, as used in …; test: ITC; remark: listed apart in the source
[7] = molecular target: T1, triple Tudor domain (3TD) of SETDB1, …; test: NMR
[8] = molecular target: T1, triple Tudor domain (3TD) of SETDB1, …; test: ITC; remark: listed apart in the source

Kd [1] [µM]	Kd [2] [µM]	Kd [3] [µM]	Kd [4] [µM]	Kd [5] [µM]	Kd [6] [µM]	Kd [7] [µM]	Kd [8] [µM]	Binder
23.9	55.6	135	9.2	–	–	–	–	KQTARK(Me3)STGGK(Ac)APRKQ [H3K9me3/K14ac peptide in solution (ITC; crystals)]
9.3	174	8.1	2.6	~350	353	–	–	KQTARK(Me2)STGGK(Ac)APRKQ [H3K9me2/K14ac peptide in solution (ITC; crystal with W358A), limits not stated]
–	–	–	–	–	–	930	> 500	KQTARKSTGGK(Ac)APRKQ [monomodified H3K14ac peptide in solution (ITC, NMR; crystal)]
29.4	–	19.2	5.1	–	–	–	–	KQTARK(Me)STGGK(Ac)APRKQ [H3K9me1/K14ac peptide in solution (ITC)]
